This note sets out measurements from PMC12809912, “Structural and epitope characterization of anti-DEFA5 monoclonal antibodies clones 1A8 and 4F5 for inflammatory bowel disease subtype diagnostics” (International journal of biological macromolecules, 2025).

In general, Kd refers to the constant that tells how readily two partners part at equilibrium. The term stoichiometry N denotes a count of units in the complex or per binding partner.

Ends that are not written are not given here. * marks the point of attachment. Biotin = O=C1N[C@H]2[C@H](CS[C@H]2CCCCC(=O)*)N1

Details in all cases: both partners purified
In assay [1] the target is T1, peptide No. 57 of the overlapping library, DEFA5 amino acids 61-75 (ARATCYCRTGRCATR) (Homo sapiens).
T1 construct: human DEFA5 amino acids 61-75; source: synthetic peptide (GenScript, >95 % purity)
T1 chain: ARATCYCRTGRCATR
The experiment in a line: ELISA; indirect peptide ELISA: peptide coated at 5 ug/mL overnight at 4 C, antibody in PBST with 1 % BSA 2 h at 37 C, HRP goat anti-mouse IgG, OD 450 nm.

In assay [2] the target is T2, peptide variant of … with the N-terminal Ala61 deleted (Homo sapiens, UniProt Q01523).
T2 construct: also called N-terminal deletion mutant; source: synthetic peptide (GenScript, >95 % purity)
T2 chain: RATCYCRTGRCATR
The assay is described as above.

Assay [3] deals with T3, biotinylated DEFA5 epitope peptide Biotin-RATCYCRTGRCAT (Homo sapiens, cysteine pairing not given here).
T3 construct: human DEFA5 residues 62-74; source: synthetic peptide
T3 chain: Biotin-RATCYCRTGRCAT
The experiment in a line: SPR; Biacore 8K, Biotin-RATCYCRTGRCAT immobilised on SA chip (~95 RU), antibodies injected 7.81-125 nM, 25 C, HBS-EP+, 30 uL/min, global fit to a 1:1 binding model. (SPR reads the build-up and loss of mass on a sensor chip optically.)

B1: mouse monoclonal antibody clone 1A8 (anti-DEFA5) (antibody, V domains shown)
VH: QVQLQQSGAELVRPGASVKMSCKALGYTFFDYEMHWMKQTPVYGLEWIGAIHPGSGDTAYNQKFKGKATLTADKSSNTAYMELSSLTSEDSAVYYCTREGTVVAPFDYWGQGTTLTVSS
VL: DVLMTQTPLSLPVSLGDQASISCRSSQSIVHSNGNTYLEWYLQKPGQSPKLLINKVSNRFSGVPDRFSGSGSGTDFTLKISRVEAEDLGVYYCFQGSYVPYTFGGGTKLEIK
notes: the print has a blank between NYKNT and PIMDTDG; Whole IgG, intact mass ~148.73 kDa; also called mAb 1A8; source: mouse hybridoma clone, purified monoclonal antibody
Turning to B1, in assay [1], the binding result is on record as “binds”. Besides, in assay [2], the binding result is reported as “binds”. In addition, in assay [3], the dissociation constant (Kd) came to 13.5 nM and the “stoichiometry N” value amounted to 1.

B2: mouse monoclonal antibody clone 4F5 (anti-DEFA5) (antibody, V domains shown)
VH: QVQLQQSGAELVRPGASVKMSCKALGYTFFDYEMHWMKQTPVYGLEWIGAIHPGSGDTAYNQKFKGKATLTADKSSNTAYMELSSLTSEDSAVYYCTREGTVVAPFDYWGQGTTLTVSS
VL: DVLMTQTPLSLPVSLGDQASISCRSSQSIVHSNGNTYLEWYLQKPGQSPKLLINKVSNRFSGVPDRFSGSGSGTDFTLKISRVEAEDLGVYYCFQGSYVPYTFGGGTKLEIK
notes: the print has a blank between NYKNT and PIMDTDG; Whole IgG, intact mass ~148.65 kDa; also called mAb 4F5; source: mouse hybridoma clone, purified monoclonal antibody
As for B2, the binding result in assay [1] and in assay [2] was “binds” throughout. Further, in assay [3], the Kd is 15 nM. In assay [3], the “stoichiometry N” value amounted to 1.
